Earlier results in PMC5741096.
pKd: −log10 of the molar value.

Experiments:
[1] = molecular target: IL-2Rβ/IL-2Rγ (Mus musculus) (UniProt P16297)
[2] = molecular target: IL-2Rα/IL-2Rβ/IL-2Rγ (Mus musculus) (UniProt P01590)
Sequence of UniProt P01590 (P01590 22-236, chain 1 of 3): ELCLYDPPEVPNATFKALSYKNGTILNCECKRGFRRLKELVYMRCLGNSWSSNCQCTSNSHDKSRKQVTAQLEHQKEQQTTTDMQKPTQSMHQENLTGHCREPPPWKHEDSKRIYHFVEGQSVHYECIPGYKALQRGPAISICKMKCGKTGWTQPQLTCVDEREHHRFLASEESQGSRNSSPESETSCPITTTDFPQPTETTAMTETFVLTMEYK
Sequence of UniProt P01590 (P16297 27-240, chain 2 of 3, further chain): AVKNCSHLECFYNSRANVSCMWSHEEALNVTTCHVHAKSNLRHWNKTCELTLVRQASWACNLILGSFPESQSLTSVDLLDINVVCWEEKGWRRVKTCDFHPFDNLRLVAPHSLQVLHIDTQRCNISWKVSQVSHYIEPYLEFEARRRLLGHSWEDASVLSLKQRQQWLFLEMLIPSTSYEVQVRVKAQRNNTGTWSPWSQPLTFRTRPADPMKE
Sequence of UniProt P01590 (P34902 23-263, chain 3 of 3, further chain): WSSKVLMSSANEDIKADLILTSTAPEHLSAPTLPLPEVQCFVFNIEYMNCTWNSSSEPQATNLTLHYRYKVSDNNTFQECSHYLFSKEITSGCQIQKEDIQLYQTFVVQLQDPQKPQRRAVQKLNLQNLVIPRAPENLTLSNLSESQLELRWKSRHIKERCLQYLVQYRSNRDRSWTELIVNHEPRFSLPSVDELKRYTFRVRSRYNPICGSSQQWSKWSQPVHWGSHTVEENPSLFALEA

Sequence of UniProt P16297 (P16297 27-240, chain 1 of 2): as the sequence (P16297 27-240, chain 2 of 3, further chain) above
Sequence of UniProt P16297 (P34902 23-263, chain 2 of 2, further chain): as the sequence (P34902 23-263, chain 3 of 3, further chain) above

pKd [1]: 9.00
pKd [2]: 11.00
Substance: IL-2 (from UniProt P04351)
